Consider one molecule from publication PMC4521584, “MutS/MutL crystal structure reveals that the MutS sliding clamp loads MutL onto DNA” (eLife, 2015).

The target in the assay is T1, WT MutS, full length (E. coli, UniProt P23909 1-853).
T1 construct: MutS, E. coli, wild type; also called MutS sliding clamp; source: mutS gene in vector pET-3D; purified as described previously
T1 sequence (looked up): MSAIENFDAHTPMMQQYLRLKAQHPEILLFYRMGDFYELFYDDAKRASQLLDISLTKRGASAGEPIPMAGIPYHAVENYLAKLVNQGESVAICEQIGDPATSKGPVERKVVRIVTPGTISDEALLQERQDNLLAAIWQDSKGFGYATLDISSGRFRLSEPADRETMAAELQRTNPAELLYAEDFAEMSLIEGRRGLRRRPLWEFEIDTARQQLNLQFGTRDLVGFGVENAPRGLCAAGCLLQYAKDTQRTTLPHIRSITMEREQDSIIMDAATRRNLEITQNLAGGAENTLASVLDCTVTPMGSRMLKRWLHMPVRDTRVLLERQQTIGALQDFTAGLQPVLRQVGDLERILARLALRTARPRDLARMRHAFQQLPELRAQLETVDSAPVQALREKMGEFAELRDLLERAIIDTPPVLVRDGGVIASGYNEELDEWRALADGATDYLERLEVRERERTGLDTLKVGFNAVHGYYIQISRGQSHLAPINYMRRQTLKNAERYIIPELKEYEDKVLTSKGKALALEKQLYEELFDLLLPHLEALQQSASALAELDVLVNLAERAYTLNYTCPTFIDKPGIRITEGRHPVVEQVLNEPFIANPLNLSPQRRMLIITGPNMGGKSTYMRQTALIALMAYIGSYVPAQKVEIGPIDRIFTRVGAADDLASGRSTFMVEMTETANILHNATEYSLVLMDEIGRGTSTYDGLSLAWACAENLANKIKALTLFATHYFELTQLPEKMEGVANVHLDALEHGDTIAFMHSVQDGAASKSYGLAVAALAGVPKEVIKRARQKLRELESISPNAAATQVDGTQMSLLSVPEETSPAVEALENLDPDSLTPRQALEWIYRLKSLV
Kind of assay: SPR; two-step: 200 nM MutS with 1 mM ATP trapped as sliding clamps on immobilised, end-blocked 100-bp G:T DNA, then MutL (varying concentrations, 1 mM ATP) injected 120 s; MutS-only signal subtracted; 25 mM Hepes pH 7.5, 150 mM KCl, 5 mM MgCl2, 1 mM DTT, 0.05% TWEEN-20, 20% glycerol; not strictly affinity curves. The following applies: both partners purified.

B1: WT His6-MutL, full length (natural protein, E. coli, UniProt P23367 1-615, looked up)
chain: MPIQVLPPQLANQIAAGEVVERPASVVKELVENSLDAGATRIDIDIERGGAKLIRIRDNGCGIKKDELALALARHATSKIASLDDLEAIISLGFRGEALASISSVSRLTLTSRTAEQQEAWQAYAEGRDMNVTVKPAAHPVGTTLEVLDLFYNTPARRKFLRTEKTEFNHIDEIIRRIALARFDVTINLSHNGKIVRQYRAVPEGGQKERRLGAICGTAFLEQALAIEWQHGDLTLRGWVADPNHTTPALAEIQYCYVNGRMMRDRLINHAIRQACEDKLGADQQPAFVLYLEIDPHQVDVNVHPAKHEVRFHQSRLVHDFIYQGVLSVLQQQLETPLPLDDEPQPAPRSIPENRVAAGRNHFAEPAAREPVAPRYTPAPASGSRPAAPWPNAQPGYQKQQGEVYRQLLQTPAPMQKLKAPEPQEPALAANSQSFGRVLTIVHSDCALLERDGNISLLSLPVAERWLRQAQLTPGEAPVCAQPLLIPLRLKVSAEEKSALEKAQSALAELGIDFQSDAQHVTIRAVPLPLRQQNLQILIPELIGYLAKQSVFEPGNIAQWIARNLMSEHAQWSMAQAITLLADVERLCPQLVKTPPGGLLQSVDLHPAIKALKDE
notes: MutL, E. coli, wild type; also called WT MutL; WT His-MutL; source: mutL gene in plasmid pTX418; purified as described previously
As for B1, the binding result was “binds”.
